Test [1] addresses Sinorhizobium meliloti glutaredoxin 2 (SmGrx2), untagged (Sinorhizobium meliloti (strain Sm2011)). Briefly: ITC; SmGrx2 (50 µM, in the cell) titrated with SmYrbA (800 µM), 30 mM phosphate buffer pH 8.0, 20°C, one-set-of-sites model, duplicate.
The target of test [2] is N-terminal His-tagged SmYrbA (Sinorhizobium meliloti (strain Sm2011)). Briefly: switchSENSE; His-tagged SmYrbA held on Ni-NTA3-tagged 48mer DNA nanolevers on the chip; SmGrx2 injected at 25, 50 and 100 µM; 10 mM potassium phosphate pH 7.4, 2 mM MgCl2; 25°C; switching dynamic mode; single-exponential fits; Kd = koff/kon.

The term Kd denotes the free concentration of one partner at which half of the binding sites on the other are occupied at equilibrium, for simple one-to-one binding. A lower Kd goes with a tighter complex. For orientation: stoichiometry N means the number of molecules, sites or subunits per partner or assembly. In general, koff refers to the first-order rate constant of dissociation. A high value points to a short-lived complex. By kon is commonly meant the second-order rate constant of association. A low value points to slower complex formation.

N-terminal His-tagged SmYrbA (Sinorhizobium meliloti (strain Sm2011)), sequence (main, as listed by the source): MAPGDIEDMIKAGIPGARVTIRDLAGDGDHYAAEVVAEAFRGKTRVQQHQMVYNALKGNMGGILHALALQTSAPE

In test [1], “Sinorhizobium meliloti YrbA (SmYrbA), untagged (natural protein)” returned a Kd of 6.8 µM, a dH of -2.9 kcal/mol and a stoichiometry N of 1.27.

In test [2], “Sinorhizobium meliloti glutaredoxin 2 (SmGrx2), untagged (natural protein)” had a Kd of 5.6 µM, a dissociation halftime of 50 s, a koff of 0.014 s⁻¹ and an association rate constant (kon) of 2410 M⁻¹ s⁻¹.

The values are drawn from publication PMC7538681.
